# Values of other authors as cited in paper PMC3505813.
# Tests used:
# [1] = molecular target: aminopeptidase N (APN) (Homo sapiens) (UniProt P15144)
# VCAM-1 (Homo sapiens) = VCAM-1 (Homo sapiens) (UniProt P19320)
# UniProt P19320, sequence (P19320 25-698): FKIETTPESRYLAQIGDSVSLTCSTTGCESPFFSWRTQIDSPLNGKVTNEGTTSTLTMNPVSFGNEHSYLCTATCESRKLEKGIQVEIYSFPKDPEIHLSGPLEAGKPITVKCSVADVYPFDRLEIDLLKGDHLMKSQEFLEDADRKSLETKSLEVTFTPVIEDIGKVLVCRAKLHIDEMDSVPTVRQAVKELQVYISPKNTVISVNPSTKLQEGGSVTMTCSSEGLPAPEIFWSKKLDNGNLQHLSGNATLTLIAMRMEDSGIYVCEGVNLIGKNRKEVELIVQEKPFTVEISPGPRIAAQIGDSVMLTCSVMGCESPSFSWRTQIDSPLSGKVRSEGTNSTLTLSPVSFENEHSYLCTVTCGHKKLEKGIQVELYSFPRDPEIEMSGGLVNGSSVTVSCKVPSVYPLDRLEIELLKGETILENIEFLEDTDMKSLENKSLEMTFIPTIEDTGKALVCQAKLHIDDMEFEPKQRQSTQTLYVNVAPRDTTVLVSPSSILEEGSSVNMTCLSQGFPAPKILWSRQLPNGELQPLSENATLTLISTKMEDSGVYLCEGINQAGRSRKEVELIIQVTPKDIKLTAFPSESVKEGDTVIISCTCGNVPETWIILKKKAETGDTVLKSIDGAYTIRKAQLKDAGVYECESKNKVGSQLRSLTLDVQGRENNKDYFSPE
# UniProt P15144, sequence (P15144 2-967): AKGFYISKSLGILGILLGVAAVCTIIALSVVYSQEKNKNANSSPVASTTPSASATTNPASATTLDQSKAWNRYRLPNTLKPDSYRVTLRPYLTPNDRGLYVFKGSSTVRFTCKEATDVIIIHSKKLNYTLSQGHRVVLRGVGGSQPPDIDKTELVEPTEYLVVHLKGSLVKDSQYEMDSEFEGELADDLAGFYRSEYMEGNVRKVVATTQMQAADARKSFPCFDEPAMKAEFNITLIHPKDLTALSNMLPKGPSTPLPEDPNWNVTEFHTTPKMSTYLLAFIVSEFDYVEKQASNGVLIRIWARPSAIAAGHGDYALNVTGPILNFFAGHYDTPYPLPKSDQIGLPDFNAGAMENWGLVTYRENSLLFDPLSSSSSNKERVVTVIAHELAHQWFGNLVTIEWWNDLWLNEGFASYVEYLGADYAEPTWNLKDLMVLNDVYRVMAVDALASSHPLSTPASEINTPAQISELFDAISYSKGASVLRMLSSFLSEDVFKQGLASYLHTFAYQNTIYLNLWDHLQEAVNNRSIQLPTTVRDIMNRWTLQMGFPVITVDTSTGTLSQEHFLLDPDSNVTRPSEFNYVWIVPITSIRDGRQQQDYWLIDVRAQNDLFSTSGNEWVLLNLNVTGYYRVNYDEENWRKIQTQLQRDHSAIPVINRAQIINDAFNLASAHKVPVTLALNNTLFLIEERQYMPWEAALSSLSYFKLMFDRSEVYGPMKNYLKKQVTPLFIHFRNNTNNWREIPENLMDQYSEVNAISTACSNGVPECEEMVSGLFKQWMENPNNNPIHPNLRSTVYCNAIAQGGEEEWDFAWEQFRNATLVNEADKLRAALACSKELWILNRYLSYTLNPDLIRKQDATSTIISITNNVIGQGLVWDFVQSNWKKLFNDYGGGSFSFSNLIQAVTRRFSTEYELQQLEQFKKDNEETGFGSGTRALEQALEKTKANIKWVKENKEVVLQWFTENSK
Substance,Kd [1] [µM],Kd (VCAM-1 (Homo sapiens)) [µM]
NGR peptide,300,–
VHP peptide,–,30
